Values quoted from earlier work, collected in US20230212279A1, “TREATMENT AND PREVENTION OF DISEASE CAUSED BY TYPE IV COLLAGEN DYSFUNCTION” (Singapore Health Services PTE, LTD., priority 2020, published 2023).

Target: T1, IL-11Rα (Homo sapiens, UniProt Q14626)
T1 sequence (Q14626 23-422): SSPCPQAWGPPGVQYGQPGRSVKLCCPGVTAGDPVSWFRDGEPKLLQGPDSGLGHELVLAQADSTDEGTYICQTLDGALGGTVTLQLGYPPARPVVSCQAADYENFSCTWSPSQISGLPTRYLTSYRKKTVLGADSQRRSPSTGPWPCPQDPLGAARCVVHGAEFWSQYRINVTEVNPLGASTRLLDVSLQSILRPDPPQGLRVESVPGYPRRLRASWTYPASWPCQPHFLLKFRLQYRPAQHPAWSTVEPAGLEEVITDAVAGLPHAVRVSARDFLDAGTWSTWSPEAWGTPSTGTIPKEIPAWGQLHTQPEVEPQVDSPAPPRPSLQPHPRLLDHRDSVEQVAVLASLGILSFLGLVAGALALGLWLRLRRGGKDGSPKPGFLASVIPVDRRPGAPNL
Details: IL-11 binding to IL-11Rα alone, low affinity; cited from earlier work

B1: IL-11: pleiotropic cytokine, member of the IL-6 family of cytokines (protein)
chain: PGPPAGSPRVSSDPRADLDSAVLLTRSLLADTRQLAAQMRDKFPADGDHSLDSLPTLAMSAGTLGSLQLPGVLTRLRVDLMSYLRHVQWLRRAGGPSLKTLEPELGALQARLERLLRRLQLLMSRLALPQAAPDQPVIPLGPPASAWGSIRAAHAILGGLHLTLDWAVRGLLLLKTRL
Kd: ~22 nM
